Test results as given in patent US20250277196A1, “EPSPS MUTANTS AND METHOD OF ITS USES” (CROPEDIT BIOTECHNOLOGY INC., priority 2021, published 2025).

Assays:
[1] = test system: E. coli lacking EPSPS; assay: Glyphosate resistance comparison among rice EPSPS mutants: growth of transformed E. coli on M9 medium with different glyphosate concentrations; format: cell-based, Escherichia coli
Procedure: a) PCR system: According to the primer and template mixed PCR system corresponding to the target vector in the above table, the forward primer was 1.25 μl, the reverse primer was 1.25 μl, the template plasmid was 2 μl, the Q5 PCR master mix was 12.5 μl, and ddH2O was […].
b) PCR reaction conditions were as following: the annealing temperature was set according to the annealing temperature corresponding to the target carrier in the above table.
c) Took out 5 μl of the obtained PCR product and added it to the loading buffer for agarose gel electrophoresis. A band with a size of about 4.5 kb was considered successful.
d) Used NEB's KLD enzyme mixture to remove the template and connected the PCR product. The connection system was 5 μl KLD buffer, 1 μl KLD MIX, 1 μl PCR product, and ddH2O 3 μl. After ligating at room temperature for 5 min, transformed it into E. coli.
e) The ligation product was transformed into Dh5a competent E. coli lacking EPSPS. After resuscitation, the cells were washed twice with M9 medium, and then the washed cells were spread on M9 medium and cultured for 48 h. Sequenced the grown single colony (Tsingke Biological Technology Co., Ltd.), and selected the correct mutant to save for future use.
OsWt represents the wild type rice EPSPS(SEQ ID NO:2). […] OsGA represents the mutated rice EPSPS with mutation G172A. (SEQ ID NO:7) OsPS represents the mutated rice EPSPS with mutation P177S. (SEQ ID NO:8) OsGAPS represents the mutated rice EPSPS with mutation G172A and P177S. (SEQ ID NO:9) OsGAVA represents the mutated rice EPSPS with mutation G172A and V403A(SEQ ID NO:4). OsPSVA represents the mutated rice EPSPS with mutation P177S and V403A(SEQ ID NO:5). OsGPV represents the mutated rice EPSPS with mutation G172A, P177S and V403A(SEQ ID NO:6). OsTIPS represents the mutated rice EPSPS with mutation T173I and P177S. (SEQ ID NO: 35). OsTIPT represents the mutated rice EPSPS with mutation T173I and P177T. (SEQ ID NO:36). OsTIPSVA represents the mutated rice EPSPS with mutation T173I, P177S and V403A. (SEQ ID NO:37). OsTIPTVA represents the mutated rice EPSPS with mutation T173I, P177T and V403A. (SEQ ID NO:38). CP4 represents the wild type EPSPS from Agrobacterium tumefaciens. (SEQ ID NO:39)
Each product obtained from the above steps were transformed into E. coli lacking EPSPS. By detecting the growth of the transformed Escherichia coli on M9 medium containing different glyphosate concentrations (0 mM, 0.5 mM, 2 mM, 4 mM, 5 mM, 25 mM, 75 mM, 100 mM), the 1 mM glyphosate here was equivalent to […] glyphosate acid, the glyphosate resistance of rice EPSPS mutants was verified.

[2] = test system: T1 generation transgenic rice; assay: Glyphosate resistance of T1 generation transgenic rice seedlings (FIG. 10); format: in vivo; conditions: 100 ppm glyphosate aqueous solution (Roundup), cultivated 10 days; wild-type rice control significantly inhibited and died
Excerpt: The rice seed used in this example is RICE KENG XIANG DA008-169, which is publicly available.
Nucleic acid sequence encoding OsGPV mutants (comprising G172A, P177S and V403A) (SEQ ID NO:6) were inserted into the plant expression vector according to the conventional methods to obtain the pk510 vector expressing the OsGPV gene. (see FIG. 9)
1) The transgenic vector pk510 was introduced into Agrobacterium EHA105 to obtain recombinant Agrobacterium.
2) One to five days before the transformation experiment, recombinant Agrobacterium was inoculated on YEB solid medium containing 50 mg/L kanamycin and 15 mg/L rifampicin. The medium was sealed in the dish with 3M tape; kept at temperature at 28° C. in an inverted dish orientation and cultured it in dark for one to five days.
3) The bacteria was scraped at the “Z”-shaped tail with the inoculation ring, and gently suspended in […] NB liquid medium containing 2 mg/L 2,4-dichlorophenoxyacetic acid to make the concentration of the bacteria liquid reach approximately O.D. 600=0.1, and then reserve the make Agrobacterium infection solution.
4) After removing the rice seed coat, the rice seed was placed in a triangular flask, washed 3 times with sterile water. 75% alcohol was added to immerse the seeds, shaken gently for 1 min, and the alcohol discarded. […]

B1: OsGPV: mutated rice EPSPS with mutation G172A, P177S and V403A (SEQ ID NO:6) (protein)
chain: MAAKAEEIVLQPIREISGAVQLPGSKSLSNRILLLSALSEGTTVVDNLLNSEDVHYMLEALKALGLSVEADKVAKRAVVVGCGGKFPVEKDAKEEVQLFLGNAATAMRSLTAAVTAAGGNATYVLDGVPRMRERPIGDLVVGLKQLGADVDCFLGTECPPVRVKGIGGLPGGKVKLSGSISSQYLSALLMAAPLALGDVEIEIIDKLISIPYVEMTLRLMERFGVKAEHSDSWDRFYIKGGQKYKSPGNAYVEGDASSASYFLAGAAITGGTVTVQGCGTTSLQGDVKFAEVLEMMGAKVTWTDTSVTVTGPPREPYGKKHLKAVDVNMNKMPDAAMTLAVVALFADGPTAIRDVASWRVKETERMVAIRTELTKLGASVEEGPDYCIITPPEKLNITAIDTYDDHRMAMAFSLAACADVPVTIRDPGCTRKTFPNYFDVLSTFVRN
modifications: This sequence is synthesized in lab.
- glyphosate resistance compared with CP4 EPSPS ([1]; 100 mM glyphosate medium, FIG. 2): comparable
- glyphosate concentration of the medium on which the strain can grow ([1]; M9 medium, tested 0, 0.5, 2, 4, 5, 25, 75, 100 mM glyphosate, FIG. 2, FIG. 3): 100 mM
- growth of transgenic rice seedlings in glyphosate solution [2]: not significantly affected
